# Data reported in US6479637B1, “Hemoglobin-haptoglobin complexes” (Hemsol Inc., priority 1998, dated 2002).
# Columns and labels:
# haptoglobin 1-1 = molecular target: T1, haptoglobin 1-1 (Homo sapiens, UniProt P00738); assay: Complex formation of modified hemoglobins with haptoglobin 1-1 (size exclusion / anion exchange chromatography); format: binding; conditions: THb-PQ mixture with haptoglobin 1-1, room temperature, 21 hours
# T1 construct: Hp 1-1 is composed of two α^1β dimers and has a molecular weight of about 98 kDa
# T1 sequence (P00738 19-347 isoform P00738-2 limits assumed): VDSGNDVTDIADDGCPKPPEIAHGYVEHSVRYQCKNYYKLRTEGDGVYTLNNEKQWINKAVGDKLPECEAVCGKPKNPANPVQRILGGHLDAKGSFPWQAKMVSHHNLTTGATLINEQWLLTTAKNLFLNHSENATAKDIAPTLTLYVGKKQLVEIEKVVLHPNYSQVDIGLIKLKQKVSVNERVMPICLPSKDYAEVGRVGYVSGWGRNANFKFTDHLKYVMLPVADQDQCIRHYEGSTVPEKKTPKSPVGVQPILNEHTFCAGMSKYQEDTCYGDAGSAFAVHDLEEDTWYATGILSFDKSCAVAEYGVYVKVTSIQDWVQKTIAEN
# T1 sequence (P00738 103-347 isoform P00738-2 limits assumed): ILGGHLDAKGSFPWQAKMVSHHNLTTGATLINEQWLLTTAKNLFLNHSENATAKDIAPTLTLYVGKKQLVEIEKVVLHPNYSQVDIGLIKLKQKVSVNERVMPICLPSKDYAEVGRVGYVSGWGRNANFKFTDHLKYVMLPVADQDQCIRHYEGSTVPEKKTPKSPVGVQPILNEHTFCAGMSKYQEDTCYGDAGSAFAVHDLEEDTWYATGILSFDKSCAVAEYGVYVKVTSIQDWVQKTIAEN
# plasmid DNA (pCMVbeta) = assay: Gel mobility shift assay of DNA binding; conditions: 50 to 1600 ng of protein, 140 ng DNA
# Procedure: Gel mobility shift assays were conducted to evaluate the stoichiometry of binding of plasmid DNA (pCMVbeta) to the THb-Kn conjugates. This gel electrophoretic method is based on the observation that the migratory properties of the DNA are altered upon binding protein. Neither proteins nor DNA-protein complexes in which protein constitutes a significant part of their mass enter 1% agarose gels. If mixtures with an increasing THb-Kn to DNA ratio are analyzed, it is observed that the DNA band disappears at and above the ratio that corresponds to the stoichiometry of the complex. For each of the four conjugates and for the THb-K26kDa-Hp complex, solutions containing from 0.4 to 6400 ng of the conjugate (this weight based on the hemoglobin component) in 32 μL of 20 mM HEPES pH 7.3 containing 150 mM NaCl were prepared. […] The samples (15 μL) were analyzed on a 1% agarose gel containing ethidium bromide (0.2 μg/mL). The amount of conjugate which prevented DNA entry into the gel was determined.
# FIG. 4A (left) and 4B (right) are depictions of gel mobility shift assays of haptoglobin-hemoglobin-DNA conjugates produced according to Example 4. […] The results for THb-K26kDa are in good agreement with the fluorescence quench assay which indicated 86% of fluorescence decrease at the same THb-K26kDa to DNA ratio. […]
# rat haptoglobin = molecular target: T2, rat haptoglobin (Rattus norvegicus, UniProt P06866); assay: Binding of modified human Hb ([3H]-NEM-Hb) to rat haptoglobin in plasma (SEC)
# T2 construct: combined with rat serum containing haptoglobin; from tissue; host or cells: rat serum
# T2 sequence (P06866 19-101 limits assumed): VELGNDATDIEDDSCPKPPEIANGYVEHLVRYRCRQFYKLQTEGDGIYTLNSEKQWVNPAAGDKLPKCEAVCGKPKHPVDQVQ
# T2 sequence (P06866 103-347 limits assumed): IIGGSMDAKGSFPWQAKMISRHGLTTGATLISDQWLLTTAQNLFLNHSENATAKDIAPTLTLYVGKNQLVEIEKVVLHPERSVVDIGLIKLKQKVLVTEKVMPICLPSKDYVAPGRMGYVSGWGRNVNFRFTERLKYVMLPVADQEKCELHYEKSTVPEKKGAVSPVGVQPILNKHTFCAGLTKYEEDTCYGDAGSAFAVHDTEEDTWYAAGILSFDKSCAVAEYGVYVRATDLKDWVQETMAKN
# Procedure: 1 mCi of ^3H-N-ethylmaleimide ([^3H]-NEM) in pentane was evaporated in 0.5 mL phosphate buffer, and 25 mg of Hb in 1 mL buffer was added giving a final NEM:Hb ratio of 0.06:1, or 37 μCi/mg Hb. RP HPLC analysis after 24 hours at 4° C. indicated incorporation of the majority of the radiolabel into a modified beta peak. After 47 hr, a 15-fold excess (over βCys93 thiol) of non-radiolabeled NEM was added. Salts and unbound NEM were removed by gel filtration, and the final concentration adjusted to 10.2 mg Hb/mL. A small portion of this material (^3H-NEM-Hb) was then combined with rat serum containing haptoglobin to determine if all radiolabeled components bound to Hp. The Hb-binding capacity of the rat serum was adjusted to […] Hb/mL serum. 0.5 and 2.0 equivalents of ^3H-NEM-Hb, based on Hb-binding capacity, were combined with serum and analyzed -by size exclusion chromatography eluted under dissociating, non-denaturing conditions using 0.5 M MgCl2, 25 mM Tris pH 7.4 (FIG. 15). In the ^3H-NEM-Hb preparation, all radioactivity was associated with a 32 kDa peak. […] 7.3% of the radioactivity combining with plasma components appears in a high MW peak at 22 minutes.
# [1] = Biodistribution of modified Hb and haptoglobin complexes in rat; conditions: for AUC Liver / AUC Plasma: dose = ug Hb/g body weight, no extrapolation to time zero
# Procedure: The ability of Hp to target modified Hb to the liver was measured in a radioisotope biodistribution study. Two test articles were prepared from purified human HbA0 modified with tritium-labeled N-ethylmaleimide ([^3H]-NEM-Hb): [^3H]-NEM-Hb alone in Ringer's lactate, and [^3H]-NEM-Hb complexed to a slight excess of rat haptoglobin in rat plasma. Three treatment groups were analyzed; (A) normal rats received the modified Hb-haptoglobin complex in plasma, (B) normal rats received the modified Hb only (approximately twice the Hb-binding capacity of the rat), and (C) haptoglobin-depleted rats received the modified Hb only. Approximately 3 mg of Hb were administered to conscious Sprague-Dawley rats in each case. Liver and plasma samples were collected at 30, 60 and 120 minutes post-administration and radioactivity counted after solubilization and quenching.
# [2] = 30 minutes, haptoglobin-depleted rats (group C)
# [3] = 30 minutes, normal rats (groups A, B)
# [4] = haptoglobin-depleted rats (group C)
Substance,reacted with Hp (anion exchange chromatography) (haptoglobin 1-1),DNA binding (change in DNA migration) (plasmid DNA (pCMVbeta)),capability of all components to bind rat haptoglobin in plasma (rat haptoglobin),"radioactivity appearing in the Hb-haptoglobin peak (rat haptoglobin; 0.5 eq. based on Hb-binding capacity of rat serum, SEC)","binding state at haptoglobin saturation (rat haptoglobin; 2.0 eq. based on Hb-binding capacity of rat serum, SEC)","radioactivity combining with plasma components appearing in high MW peak at 22 minutes (rat haptoglobin; rat serum, SEC) [%]","dose in the plasma and liver compartments relative to groups A and B [1, 2]","total dose in the liver [1, 2] [%]","dose in the plasma and liver compartments [1, 3] [%]","total dose in the liver [1, 3]","liver to plasma concentration/dose ratio ([1]; 120 minutes, normal rats (groups A, B))","liver content relative to group C ([1]; 120 minutes, normal rats vs haptoglobin-depleted rats given modified Hb only) [fold]","AUC Liver [1, 4] [ug Hb · min/g/dose]","AUC Plasma [1, 4] [ug Hb · min/mL/dose]","liver uptake (area under distribution curve) relative to group C ([1]; normal rats (groups A, B) vs haptoglobin-depleted rats)","AUC Liver ([1]; normal rats (groups A, B)) [ug Hb · min/g/dose]","AUC Plasma ([1]; normal rats (groups A, B)) [ug Hb · min/mL/dose]"
unmodified hemoglobin: unmodified (uncross-linked) hemoglobin remaining in the THb-PQ product mixture,all,–,–,–,–,–,–,–,–,–,–,–,–,–,–,–,–
"THb: TTDS (trimesoyl tris(3,5-dibromosalicylate)) cross-linked hemoglobin, hydrolyzed, without attached agent [reference compound]",74%,does not bind DNA,–,–,–,–,–,–,–,–,–,–,–,–,–,–,–
[^3H]-NEM-Hb: purified human HbA0 modified with tritium-labeled N-ethylmaleimide; given alone to groups B and C,–,–,capable of binding rat haptoglobin in plasma,all radioactivity appeared in the Hb-haptoglobin peak,haptoglobin is saturated and excess ^3H-NEM-Hb remains unbound,7.3,roughly half that amount,11,60,approximately 20%,approximately 4 times,2,234.0,163.0,approximately twice that of group C,510.4,284.2
